This note sets out measurements from patent publication US20160113911A1, “METHODS AND COMPOSITIONS FOR THE TREATMENT OF CANCER” (THE GENERAL HOSPITAL CORPORATION, priority 2013, published 2016).

To fix the notation:
B1: 2A-I87V: KDM4A mutation (protein)
chain: MASESETLNPSARIMTFYPTMEEFRNFSRYIAYIESQGAHRAGLAKVVPPKEWKPRASYDDIDDLVIPAPIQQLVTGQSGLFTQYNVQKKAMTVREFRKIANSDKYCTPRYSEFEELERKYWKNLTFNPPIYGADVNGTLYEKHVDEWNIGRLRTILDLVEKESGITIEGVNTPYLYFGMWKTSFAWHTEDMDLYSINYLHFGEPKSWYSVPPEHGKRLERLAKGFFPGSAQSCEAFLRHKMTLISPLMLKKYGIPFDKVTQEAGEFMITFPYGYHAGFNHGFNCAESTNFATRRWIEYGKQAVLCSCRKDMVKISMDVFVRKFQPERYKLWKAGKDNTVIDHTLPTPEAAEFLKESELPPRAGNEEECPEEDMEGVEDGEEGDLKTSLAKHRIGTKRHRVCLEIPQEVSQSELFPKEDLSSEQYEMTECPAALAPVRPTHSSVRQVEDGLTFPDYSDSTEVKFEELKNVKLEEEDEEEEQAAAALDLSVNPASVGGRLVFSGSKKKSSSSLGSGSSRDSISSDSETSEPLSCRAQGQTGVLTVHSYAKGDGRVTVGEPCTRKKGSAARSFSERELAEVADEYMFSLEENKKSKGRRQPLSKLPRHHPLVLQECVSDDETSEQLTPEEEAEETEAWAKPLSQLWQNRPPNFEAEKEFNETMAQQAPHCAVCMIFQTYHQVEFGGFNQNCGNASDLAPQKQRTKPLIPEMCFTSTGCSTDINLSTPYLEEDGTSILVSCKKCSVRVHASCYGVPPAKASEDWMCSRCSANALEEDCCLCSLRGGALQRANDDRWVHVSCAVAILEARFVNIAERSPVDVSKIPLPRFKLKCIFCKKRRKRTAGCCVQCSHGRCPTAFHVSCAQAAGVMMQPDDWPFVVFITCFRHKIPNLERAKGALQSITAGQKVISKHKNGRFYQCEVVRLTTETFYEVNFDDGSFSDNLYPEDIVSQDCLQFGPPAEGEVVQVRWTDGQVYGAKFVASHPIQMYQVEFEDGSQLVVKRDDVYTLDEELPKRVKSRLSVASDMRFNEIFTEKEVKQEKKRQRVINSRYREDYIEPALYRAIME
B2: 2A-G376V: KDM4A mutation (protein)
chain: B1 chain with V87I, G376V
B3: 2A-A236V: KDM4A mutation (protein)
chain: B1 chain with V87I, A236V
B4: 2A-E426K: KDM4A mutation (protein)
chain: B1 chain with V87I, E426K
B5: 2A-V319M: KDM4A mutation (protein)
chain: B1 chain with V87I, V319M
B6: 2A-G278S: KDM4A mutation (protein)
chain: B1 chain with V87I, G278S
B7: 2A-R218W: KDM4A mutation (protein)
chain: B1 chain with V87I, R218W
B8: 2A-P348L: KDM4A mutation (protein)
chain: B1 chain with V87I, P348L
B9: 2A-V490M: KDM4A mutation (protein)
chain: B1 chain with V87I, V490M
B10: 2A-P326T: KDM4A mutation (protein)
chain: B1 chain with V87I, P326T
B11: 2A-R239H: KDM4A mutation (protein)
chain: B1 chain with V87I, R239H
B12: 2A-R400Q: KDM4A mutation (protein)
chain: B1 chain with V87I, R400Q
B13: 2A-G225C: KDM4A mutation (protein)
chain: B1 chain with V87I, G225C
B14: 2A-T289I: KDM4A mutation (protein)
chain: B1 chain with V87I, T289I
B15: 2A-E113K: KDM4A mutation (protein)
chain: B1 chain with V87I, E113K
B16: 2A-E368K: KDM4A mutation (protein)
chain: B1 chain with V87I, E368K
B17: 2A-R152W*: KDM4A mutation (protein, UniProt O75164 2-1064, looked up, variant R152W)
Lysine-specific demethylase 4A: ASESETLNPSARIMTFYPTMEEFRNFSRYIAYIESQGAHRAGLAKVVPPKEWKPRASYDDIDDLVIPAPIQQLVTGQSGLFTQYNIQKKAMTVREFRKIANSDKYCTPRYSEFEELERKYWKNLTFNPPIYGADVNGTLYEKHVDEWNIGWLRTILDLVEKESGITIEGVNTPYLYFGMWKTSFAWHTEDMDLYSINYLHFGEPKSWYSVPPEHGKRLERLAKGFFPGSAQSCEAFLRHKMTLISPLMLKKYGIPFDKVTQEAGEFMITFPYGYHAGFNHGFNCAESTNFATRRWIEYGKQAVLCSCRKDMVKISMDVFVRKFQPERYKLWKAGKDNTVIDHTLPTPEAAEFLKESELPPRAGNEEECPEEDMEGVEDGEEGDLKTSLAKHRIGTKRHRVCLEIPQEVSQSELFPKEDLSSEQYEMTECPAALAPVRPTHSSVRQVEDGLTFPDYSDSTEVKFEELKNVKLEEEDEEEEQAAAALDLSVNPASVGGRLVFSGSKKKSSSSLGSGSSRDSISSDSETSEPLSCRAQGQTGVLTVHSYAKGDGRVTVGEPCTRKKGSAARSFSERELAEVADEYMFSLEENKKSKGRRQPLSKLPRHHPLVLQECVSDDETSEQLTPEEEAEETEAWAKPLSQLWQNRPPNFEAEKEFNETMAQQAPHCAVCMIFQTYHQVEFGGFNQNCGNASDLAPQKQRTKPLIPEMCFTSTGCSTDINLSTPYLEEDGTSILVSCKKCSVRVHASCYGVPPAKASEDWMCSRCSANALEEDCCLCSLRGGALQRANDDRWVHVSCAVAILEARFVNIAERSPVDVSKIPLPRFKLKCIFCKKRRKRTAGCCVQCSHGRCPTAFHVSCAQAAGVMMQPDDWPFVVFITCFRHKIPNLERAKGALQSITAGQKVISKHKNGRFYQCEVVRLTTETFYEVNFDDGSFSDNLYPEDIVSQDCLQFGPPAEGEVVQVRWTDGQVYGAKFVASHPIQMYQVEFEDGSQLVVKRDDVYTLDEELPKRVKSRLSVASDMRFNEIFTEKEVKQEKKRQRVINSRYREDYIEPALYRAIME
B18: 2A-K123I: KDM4A mutation (protein)
chain: B1 chain with V87I, K123I
B19: 2A-V919M: KDM4A mutation (protein)
chain: B1 chain with V87I, V919M

Positions count from the first letter of the chain named. In names and notes the source's numbering stands.

The test system of the first data set is H3K9me3. Put plainly: H3K9 demethylase activity of KDM4 variants in transfected cells. Also noted: key: + indicates active; − indicates inactive; +/− indicates partial acitivty. Format: cell-based. The following applies: KDM4A mutations.
As for B1, the “H3k9 Demethylase Activity” value is given as “+”. B2: the “H3k9 Demethylase Activity” value is “+”. On to B3, for which the “H3k9 Demethylase Activity” value is reported as “+”. On the same count and under the same terms, then B4, with “+”; and B5, with “+”; and B6, with “−”. Take B7: the “H3k9 Demethylase Activity” value was “+”. Same read-out and setting: with B8 the entry was “+”; with B9, “+”.

For the molecule B10, the “H3k9 Demethylase Activity” value is “+”. On the same count and under the same terms, with B11 the entry was “+/−”; with B12, “+”. Same read-out and setting: with B13 the entry was “+”; with B14, “+/−”. Consider B15, for which the “H3k9 Demethylase Activity” value is reported as “+/−”. Still for that read-out and setting: then B16, with “+”; and B17, with “+”.

For a further data set, the system named is H3K36me3. The experiment in a line: H3K36 demethylase activity of KDM4A variants in transfected cells (immunofluorescence). The format is cell-based. Also noted: key: + indicates active; − indicates inactive; +/− indicates partial acitivty. The note with it: KDM4A mutations. As to the method:
The indicated NHF-tagged KDM4A deletion constructs were transfected into RPE cells grown on coverslips in 10 cm dishes using X-tremeGENE 9™ DNA transfection reagent (Roche). H3K36me3 and subcellular localization were assayed by examining transfected cells (positive for HA staining; HA.11 Covance) following fixation in 3.7% PFA in PBS (Whetstine et al., 2006).
All immunofluorescence experiments were performed as in (Black et al., 2013). For the localization experiment a minimum of 50 cells were blinded and scored. For the catalytic activity, cells overexpressing a high level of KDM4A WT or SNP-A482 were analyzed in a non quantitative manner.
On to B1, for which the “H3k36 Demethylase Activity” value was “+”. Regarding B2, the “H3k36 Demethylase Activity” value is recorded as “+”. Consider B3, for which the “H3k36 Demethylase Activity” value is listed as “+”.

With B4, the “H3k36 Demethylase Activity” value was “+”. Same read-out and setting: with B5 the entry was “+”. Regarding B6, the “H3k36 Demethylase Activity” value is given as “−”.

With B7, the “H3k36 Demethylase Activity” value was “−”. Still for that read-out and setting: then B8, with “+”.

Consider B18, for which the “H3k36 Demethylase Activity” value was “+”. On the same count and under the same terms, then B19, with “+”; and B9, with “+”; and B10, with “+”.

Take B11: the “H3k36 Demethylase Activity” value is recorded as “+/−”. As for B12, the “H3k36 Demethylase Activity” value is given as “+”. As for B13, the “H3k36 Demethylase Activity” value was “+/−”. On to B14, for which the “H3k36 Demethylase Activity” value is given as “−”. Same read-out and setting: then B15, with “+”. Same read-out and setting: then B16, with “+”; and B17, with “+”.
